Reference: FireProtDB (doi:10.1016/j.ijbiomac.2020.03.166)
Values joined by “and” are separate entries in the source; they are usually repeats but may differ in a detail not shown here. Equal entries are not always repeated.

Conditions: Leishmania major, pH 7.5, potassium phosphate, NaCl, transition: 2, whole UniProt chain shown
[1] = GdnHCl, fluorescence emission maxima
[2] = Urea, fluorescence emission maxima

B1: Peptidyl-prolyl cis-trans isomerase wild type, Q4QII4 (protein)
chain: MPTSSWRAEHLLIKHSGSRNPVSRRTGQPTTISYEEAVTELQKWCQSINDGKVTFEEAARQRSDCSSYARGGDLGVFGPGEMMKPFEDATKSLEVGQVSGIVVTDSGVHIIKRIA
denaturant m value (GdnHCl, CD): 3.32 kcal/mol/M | denaturant midpoint (higher = more stable) (GdnHCl, CD): 0.98 M | unfolding free energy (GdnHCl, CD): 3.27 kcal/mol | denaturant m value (GdnHCl, anisotropy): 3.87 kcal/mol/M | denaturant midpoint (higher = more stable) (GdnHCl, anisotropy): 1.16 M | unfolding free energy (GdnHCl, anisotropy): 4.51 kcal/mol | denaturant m value [1]: 4.3 kcal/mol/M | denaturant midpoint (higher = more stable) [1]: 1.1 M | unfolding free energy [1]: 4.74 kcal/mol | denaturant m value (GdnHCl, fluorescence intensity): 4.61 kcal/mol/M | denaturant midpoint (higher = more stable) (GdnHCl, fluorescence intensity): 0.97 M | unfolding free energy (GdnHCl, fluorescence intensity): 4.48 kcal/mol | unfolding enthalpy (calorimetric) (Thermal, DSC): 36.6 kcal/mol and 55.1 kcal/mol | denaturant m value (Urea, CD): 1.38 kcal/mol/M | denaturant midpoint (higher = more stable) (Urea, CD): 4.12 M | unfolding free energy (Urea, CD): 5.69 kcal/mol | denaturant m value (Urea, anisotropy): 1.2 kcal/mol/M | denaturant midpoint (higher = more stable) (Urea, anisotropy): 4.15 M | unfolding free energy (Urea, anisotropy): 4.99 kcal/mol | denaturant m value [2]: 1.28 kcal/mol/M | denaturant midpoint (higher = more stable) [2]: 4.78 M | unfolding free energy [2]: 5.12 kcal/mol | denaturant m value (Urea, fluorescence intensity): 1.39 kcal/mol/M | denaturant midpoint (higher = more stable) (Urea, fluorescence intensity): 3.53 M | unfolding free energy (Urea, fluorescence intensity): 4.91 kcal/mol
